Assay results as given in patent US20190211099A1 (KING S COLLEGE LONDON, published 2019).

Target: T1, MUC1 carrying sialylated Core-1 glycans expressed by the breast cancer cell line T47D (UniProt P15941 24-1255, limits assumed, O-linked sialylated Core-1 glycans)
T1 construct: whole, on cells; also called MUC1-ST on T47D cells; T47D cells (MUC1-ST+ve)
Assay: staining of FFPE T47D cells with human Siglec-9 IgG fusion, DAB

T1 sequence (P15941 24-1255 limits assumed, stated change not applied): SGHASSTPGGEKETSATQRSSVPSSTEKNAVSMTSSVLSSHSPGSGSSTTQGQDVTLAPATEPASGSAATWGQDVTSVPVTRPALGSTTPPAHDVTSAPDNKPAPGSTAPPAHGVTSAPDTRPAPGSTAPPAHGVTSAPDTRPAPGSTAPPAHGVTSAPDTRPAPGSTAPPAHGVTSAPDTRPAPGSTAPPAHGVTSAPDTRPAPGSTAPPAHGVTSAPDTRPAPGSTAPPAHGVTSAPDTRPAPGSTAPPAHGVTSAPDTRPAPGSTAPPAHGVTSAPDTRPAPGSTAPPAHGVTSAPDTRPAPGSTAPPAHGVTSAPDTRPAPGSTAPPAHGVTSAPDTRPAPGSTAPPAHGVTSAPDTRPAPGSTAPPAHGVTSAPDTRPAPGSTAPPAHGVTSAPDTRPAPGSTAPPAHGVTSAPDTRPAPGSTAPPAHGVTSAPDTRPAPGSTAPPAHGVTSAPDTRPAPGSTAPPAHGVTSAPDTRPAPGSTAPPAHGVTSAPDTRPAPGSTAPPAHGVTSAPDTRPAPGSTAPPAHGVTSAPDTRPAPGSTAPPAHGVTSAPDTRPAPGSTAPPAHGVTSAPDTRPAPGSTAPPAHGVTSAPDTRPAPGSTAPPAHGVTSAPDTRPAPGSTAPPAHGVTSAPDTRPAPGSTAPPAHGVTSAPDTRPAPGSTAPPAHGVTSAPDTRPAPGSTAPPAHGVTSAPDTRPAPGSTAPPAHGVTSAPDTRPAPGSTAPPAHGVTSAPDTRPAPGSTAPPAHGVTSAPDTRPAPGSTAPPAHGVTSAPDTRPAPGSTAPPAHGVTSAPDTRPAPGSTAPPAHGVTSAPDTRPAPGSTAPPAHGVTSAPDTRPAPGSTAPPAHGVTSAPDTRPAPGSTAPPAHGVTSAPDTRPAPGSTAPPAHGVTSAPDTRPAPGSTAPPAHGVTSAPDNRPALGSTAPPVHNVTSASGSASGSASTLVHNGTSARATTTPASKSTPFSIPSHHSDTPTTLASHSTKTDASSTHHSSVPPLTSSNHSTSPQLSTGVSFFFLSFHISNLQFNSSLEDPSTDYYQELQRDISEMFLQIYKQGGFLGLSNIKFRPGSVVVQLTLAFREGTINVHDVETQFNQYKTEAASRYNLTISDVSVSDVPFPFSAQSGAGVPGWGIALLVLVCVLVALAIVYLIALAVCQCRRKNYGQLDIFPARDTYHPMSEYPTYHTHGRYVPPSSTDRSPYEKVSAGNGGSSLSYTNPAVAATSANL

B1: Recombinant human Siglec-9 fusion protein (Fc fusion)
chain: TSKLLTMQSSVTVQEGLCVHVPCSFSYPSHGWIYPGPVVHGYWFREGANTDQDAPVATNNPARAVWEETRDRFHLLGDPHTKNCTLSIRDARRSDAGRYFFRMEKGSIKWNYKHHRLSVNVTALTHRPNILIPGTLESGCPQNLTCSVPWACEQGTPPMISWIGTSVSPLDPSTTRSSVLTLIPQPQDHGTSLTCQVTFPGASVTTNKTVHLNVSYPPQNLTMTVFQGDGTVSTVLGNGSSLSLPEGQSLRLVCAVDAVDSNPPARLSLSWRGLTLCPSQPSNPGVLELPWVHLRDAAEFTCRAQNPLGSQQVYLNVSLQSKATSGVTQG
notes: also called human Siglec-9 IgG fusion; recombinant Siglec 9; not shown: human IgG part of the fusion (captured with mouse anti human IgG)
B1: binds.
